Source: patent US20140322759
Positions count from the first letter of the chain named.

What was measured:
Experiment in all cases: EMSA
[1] = molecular target: T1, phi29 DNA polymerase Mut_5 M8R,V51A,M97T,G197D,E221K,Q497P,K512E,F526L (Bacillus phage phi29) (UniProt P03680); details: SD 7.4; unit not given (μM in assay); pH 7.9, 66 mM K-acetate, 30 C
T1 sequence: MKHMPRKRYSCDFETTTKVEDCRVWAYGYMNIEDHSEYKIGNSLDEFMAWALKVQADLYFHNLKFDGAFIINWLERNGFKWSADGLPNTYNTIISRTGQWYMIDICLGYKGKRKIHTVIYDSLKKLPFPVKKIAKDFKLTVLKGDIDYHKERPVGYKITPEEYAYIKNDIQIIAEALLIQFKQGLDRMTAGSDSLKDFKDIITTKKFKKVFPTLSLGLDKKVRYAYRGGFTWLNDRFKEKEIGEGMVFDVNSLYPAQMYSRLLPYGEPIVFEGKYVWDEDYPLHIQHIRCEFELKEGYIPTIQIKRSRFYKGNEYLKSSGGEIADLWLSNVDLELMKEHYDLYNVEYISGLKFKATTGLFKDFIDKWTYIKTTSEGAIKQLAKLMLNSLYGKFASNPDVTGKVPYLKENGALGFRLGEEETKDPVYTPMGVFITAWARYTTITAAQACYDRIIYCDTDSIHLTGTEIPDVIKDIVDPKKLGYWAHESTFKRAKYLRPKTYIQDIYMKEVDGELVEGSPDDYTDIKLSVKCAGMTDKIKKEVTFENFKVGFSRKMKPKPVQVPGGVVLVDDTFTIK

[2] = molecular target: T2, phi29 DNA polymerase V51A V51A (Bacillus phage phi29) (UniProt P03680); details: SD 10.8; unit not given (μM in assay); pH 7.9, 66 mM K-acetate, 30 C
T2 sequence: T1 sequence with R8M, T97M, D197G, K221E, P497Q, E512K, L526F

[3] = molecular target: T3, phi29 DNA polymerase Mut_4 M8R,V51A,M97T,G197D,E221K (Bacillus phage phi29) (UniProt P03680); details: SD 10.6; unit not given (μM in assay); pH 7.9, 66 mM K-acetate, 30 C
T3 sequence: T1 sequence with P497Q, E512K, L526F

[4] = molecular target: T4, phi29 DNA polymerase E515A E515A (Bacillus phage phi29) (UniProt P03680); details: SD 56.5; unit not given (μM in assay); pH 7.9, 66 mM K-acetate, 30 C
T4 sequence: T1 sequence with R8M, A51V, T97M, D197G, K221E, P497Q, E512K, E515A, L526F

GATCACAGTGAGTAC / TCTATTGTACTCACTGTGATC [15-mer/21-mer primer/template]
Kd [1]: 23 µM | Kd [2]: 52 µM | Kd [3]: 67 µM | Kd [4]: 97 µM
